Source: article PMC4908583

biological target: FPRL1 (formyl peptide receptor-like 1) inhibitory protein (FLIPr) (S. aureus) (UniProt Q2FZC0); assay: BLI
Sequence (Q2FZC0 25-133): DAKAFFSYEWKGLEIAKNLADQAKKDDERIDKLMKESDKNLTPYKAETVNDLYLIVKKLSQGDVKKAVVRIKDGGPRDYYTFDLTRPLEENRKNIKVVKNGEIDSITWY

Row | Substance | Kd
1 | complement component 1q subcomponent B (C1QB) (from UniProt P02746 28-253) (natural protein) | 2.1 nM
2 | complement component 1q subcomponent A (C1QA) (from UniProt P02745 23-245) (natural protein) | 3.2 nM
3 | complement component 1q subcomponent C (C1QC) (from UniProt P02747 29-245) (natural protein) | 9.9 nM
